# Experiments:
# RAD-51 (nematode) [1] = target: RAD-51 (nematode) (UniProt Q95Q25)
# RAD-51 (nematode) [2] = assay: stopped-flow Cy3 fluorescence, competitor challenge; conditions: Cy3 in backbone after nt 21; SF buffer: 50 mM Tris-HCl pH 7.5, 5 mM MgCl2, 50 mM NaCl, 2 mM ATP or ADP or no nucleotide; EMSA 25 C with 0.125% glutaraldehyde; BLI room temperature with …
# RAD-51 (nematode) [3] = assay: stopped-flow Cy3 fluorescence; conditions: SF buffer: 50 mM Tris-HCl pH 7.5, 5 mM MgCl2, 50 mM NaCl, 2 mM ATP or ADP or no nucleotide; EMSA 25 C with 0.125% glutaraldehyde; BLI room temperature with …
substance,measurement,setting,value
RFS-1/RIP-1 complex (from UniProt P34348 1-245),"stopped-flow, Cy3-43mer ssDNA (15 nM), RAD-51 1 uM pre-mixed with increasing RFS-1/RIP-1 (up to 1 uM), no nucleotide: reduction of the fluorescence increase due to RAD-51 binding to ssDNA",RAD-51 (nematode) [1],3 fold
TTTTTTTTTTTTTTTTTTTTTTTTTTTTTTTTTTTTTTTTTTT [(Int21)-Cy3-43mer],K half,RAD-51 (nematode) [2],26 nM
TTTTTTTTTTTTTTTTTTTTTTTTTTTTTTTTTTTTTTTTTTT [Cy3-43mer (label position not stated)],IC50,RAD-51 (nematode) [3],0.2 µM
